Experimental findings from PMC5569669, “Rhenium and Technetium-oxo Complexes with Thioamide Derivatives of Pyridylhydrazine Bifunctional Chelators Conjugated to the Tumour Targeting Peptides Octreotate and Cyclic-RGDfK” (Inorganic Chemistry, 2017) are described below.

The series is classed as in vitro ADME, human. The procedure: Human blood samples were centrifuged with a Heraeus Labofuge 6000 centrifuge at 3000g for 10 min (Heraeus, Hanau, Germany). Radioactivity readings for serum stability studies were taken with a Capintec CRC-35R dose calibrator (Capintec, New Jersey, USA) and were measured in MBq. Centrifugation of radioactive compounds was undertaken using an Eppendorf 5415 D centrifuge (Eppendorf, Hamburg, Germany). Partition coefficient data were collected with a PerkinElmer, Wizard 1470 (PerkinElmer, Massachusetts, USA) automatic γ counter, which measured the radioactive decay of each sample in counts per minute (cpm).
For serum stability studies, blood from a healthy person (20 mL) was centrifuged (10 min, 3000 rpm) to separate blood plasma and red blood cells. The plasma was transferred to a separate vial and the red blood cells were discarded. An aliquot of plasma (0.6 mL) was added to labeled compound, [^99mTc(HL^3(Tyr^3-Oct))2]^+ (0.15 mL), the radioactivity was monitored and the mixture was then incubated at 37 °C. […] The radioactivity of the supernatant and pellet was recorded. The supernatant (20 μL) was analyzed by analytical RP-HPLC (Column 7, System C) for UV and radioactivity analysis and the pellet were washed with acetonitrile (3 × 0.1 mL), and radioactivity levels were again recorded (radioactivity levels of the pellet were negligible).

For `C[C@@H](O)[C@H](NC(=O)[C@@H]1CSSC[C@H](NC(=O)[C@@H](Cc2ccccc2)NC(=O)c2ccc(NNC(=S)Nc3ccccc3)nc2)C(=O)N[C@@H](Cc2ccc(O)cc2)C(=O)N[C@H](Cc2c[nH]c3ccccc23)C(=O)N[C@@H](CCCCN)C(=O)N[C@@H]([C@@H](C)O)C(=O)N1)C(=O)O` (99mTc complex, metal not drawn) [[^99mTcO(HL^3(Tyr^3-Oct))2]^+], the “degradation products in human plasma” value is recorded as less than 5% and the “radioactivity levels of the pellet (precipitated serum proteins)” value is “negligible”.
